The RNAGym collection of RNA variant scans (doi:10.7554/elife.80360)

B1: HDV Ribozyme (parent)
chain: GGCCGGCAUGGUCCCAGCCUCCUCGCUGGCGCCGGCUGGGCAACAUUCCGAGGGGACCGUCCCCUCGGUAAUGGCGAAUGGGACCCA
B2: CPEB3 Ribozyme (parent)
chain: GGGGGCCACAGCAGAAGCGUUCACGUCGCGGCCCCUGUCAGAUUCUGGUGAAUCUGCGAAUUCUGCUGU

Variants of: B1
Test: self-cleavage, relative activity (ratio to wild type); higher = more cleavage; co-transcriptional

Variant | self-cleavage
C85A A87C | 0.862
C85A A87U | 1.06
G81C C84U | 0.141
G81C C84G | 0.256
G81A C85G | 0.175
G80C C86G | 0.192
A87G | 0.984
A87U | 1.03
A87C | 1.01
G81C C86U | 0.302
G81C C86A | 0.554
G82C A83C | 0.284
G82C A83U | 0.237
A83U C85A | 0.237
A83U C85G | 0.208
C84A C86A | 0.712
G81C C85G | 0.128
G81C C85A | 0.213
C84G C85G | 0.26
A83G C86A | 0.941
A83G C86G | 0.807
A83G C86U | 1.08
C84A C85G | 0.519
C85G C86U | 0.858
G80C G81C | 0.186
G80C G81U | 0.231

Variant | self-cleavage
G80U G81C | 0.199
G80U G82A | 0.0297
G80U G82U | 0.147
G82U A83C | 0.18
C85U C86U | 0.895
G82U C85A | 0.256
G82U C85G | 0.446
G82U C85U | 0.451
G82A A87U | 0.443
G82A A87C | 0.583
G82A A87G | 0.342
G82C A87C | 0.28
G82C A87G | 0.185
A83G C84G | 0.95
A83G C84A | 1.02
A83G C85G | 1.12
A83G C85A | 0.677
G80C C85A | 0.117
G80C C85U | 0.194
A83C C85G | 0.175
A83C C85U | 0.268
A83C C85A | 0.534
G81A C84A | 0.339
C86G A87C | 1.04
A83U A87U | 0.507
A83U A87G | 0.531

Variant | self-cleavage
A83U A87C | 0.751
C84U C86U | 0.604
C84U C86G | 0.907
G81U C86G | 0.27
G81U C86U | 0.767
G81U A83C | 0.0821
C84U A87U | 0.946
C84U A87C | 0.749
C85G A87G | 0.919
G81C A87G | 0.306
G81C A87C | 0.269
G81C A87U | 0.265
G80U C85U | 0.227
G82U C84U | 0.133
G82U C84A | 0.261
C85A C86G | 0.791
C85A C86U | 1.05
G82A C86U | 0.522
G82A C86A | 0.729
C84U C85G | 0.923
C84U C85U | 0.604
C84U C85A | 0.877
G82U A87G | 0.387
G81A A87C | 0.455
G80U | 0.223
G81U G82U | 0.211

Variant | self-cleavage
G81U G82A | 0.277
G80U A83U | 0.181
G82A A83U | 0.376
G81A C86U | 0.546
G81A C86G | 0.45
G81A G82A | 0.201
G81A G82U | 0.225
G81A G82C | 0.163
C86U A87C | 0.926
C86U A87G | 0.942
C84G A87U | 0.842
A83C A87G | 0.302
G80U C86A | 0.239
G80U C86U | 0.281
G82C C84A | 0.383
G81U C84G | 0.0923
G81U C84U | 0.228
A83C | 0.458
A83G | 0.806
A83U | 0.523
C84G C86A | 0.764
C84G C86U | 0.675
G82A C84A | 0.399
A83G A87C | 0.906
G81U A87G | 0.291
G81U A87C | 0.444

Variant | self-cleavage
C86A A87G | 0.804
C86A A87C | 0.855
G80C G82A | 0.0824
G80C G82C | 0.166
G80C G82U | 0.0782
A83C C86U | 0.376
A83C C86G | 0.254
G81A A83G | 0.236
C84G | 0.688
C84A | 0.895
C84U | 0.804
C85U A87G | 0.963
C85U A87C | 0.933
C84A A87G | 0.61
G81C G82U | 0.287
G81U C85U | 0.31
G81U C85G | 0.212
G81U C85A | 0.389
G82C C86G | 0.194
G82U C86A | 0.793
G82A C85G | 0.339
G82C C85U | 0.18
G82C C85A | 0.147
G82C C85G | 0.119

Variants of: B2
Test: as above

Variant | self-cleavage
G1C A40U | 0.195
G1A G41A | 0.0513
G1U A60U | 0.033
G1U A60G | 0.128
G1C C54A | 0.272
G1C C54U | 0.237
G2A A10U | 0.336
G1U C12A | 0.0761
G1A U49C | 0.0571
G1A C54U | 0.0835
G1U U20C | 0.068
G1U U20G | 0.0369
G1U C63G | 0.111
G1U G47C | 0.0959
G1U C45A | 0.11
G1U C9A | 0.181
G1A G25A | 0.0488
G1A G25U | 0.076
G2A A8C | 0.194
G1U C39G | 0.103
G1A G2C | 0.265
G1A G2A | 0.302
G1A G2U | 0.332

Variant | self-cleavage
G1C G37A | 0.157
G1A C39G | 0.0386
G1A C39A | 0.0683
G1U G37U | 0.0468
G1U G37C | 0.0508
G1U A8G | 0.0916
G1A G17C | 0.0672
G1U A16U | 0.103
G1U A16G | 0.108
G1C C24G | 0.118
G1C C24U | 0.203
G1U U53C | 0.143
G1U A10C | 0.186
G1U A10G | 0.0897
G1U G30A | 0.0902
G1C C39A | 0.174
G1U C18A | 0.0311
G1A A16U | 0.0347
G1A A16C | 0.028
G1U C57A | 0.0933
G1A U53G | 0.0671
G1A U53C | 0.0532
G1A U53A | 0.0419

Variant | self-cleavage
G1C C7U | 0.172
G1C G2U | 0.142
G1C G2C | 0.67
G1U U46C | 0.0797
G1A U62G | 0.0371
G1A U62C | 0.033
G1C G48C | 0.215
G1C G48A | 0.204
G1A G48C | 0.142
G1A A42U | 0.105
G1A A42C | 0.106
G1A U44G | 0.0722
G1U C7U | 0.0859
G1U G11U | 0.129
G1U G11C | 0.118
G1A U64C | 0.0762
G1U A40G | 0.0819
G1U A40U | 0.0879
G1C C9A | 0.251
G1C U20A | 0.0802
G1U A15U | 0.0945
G1U A23C | 0.171
G1U A23G | 0.141

Variant | self-cleavage
G1U G28U | 0.0723
G1C U69G | 0.409
G1C U69C | 0.396
G1A A23G | 0.139
G1A A23C | 0.0884
G1C C18G | 0.0551
G1C C18U | 0.167
G1C C18A | 0.035
G1U U26G | 0.0529
G1U U26A | 0.0674
G1U G56A | 0.111
G1A U21C | 0.0967
G1C U49A | 0.287
G1C U53C | 0.0726
G1U G19U | 0.0505
G1U G19C | 0.0611
G1C A16C | 0.161
G1C C66G | 0.248
G1A C66U | 0.0966
G1A C66A | 0.0751
G1C U44C | 0.232
G1A G37A | 0.0641
G1A U38G | 0.0274

Variant | self-cleavage
G1A U38A | 0.0918
G1U U36A | 0.0485
G1C G28A | 0.102
G1U G2U | 0.392
G1A C22G | 0.0704
G1A C22A | 0.0619
G1U U38A | 0.0964
G1C U46A | 0.208
G1C U46G | 0.234
G1U A13C | 0.0972
G1U A13G | 0.0953
G1A G14U | 0.0964
G1U G50A | 0.139
G1C U61A | 0.253
G1U G58A | 0.0859
G1C U38A | 0.267
G1A A60G | 0.0623
G1A A60U | 0.107
G1A A40G | 0.0657
G1U G5A | 0.101
G1U G5U | 0.0243
G1C G14C | 0.152
G1C G19C | 0.126

Variant | self-cleavage
G1C G19U | 0.166
G1U A52C | 0.112
G1C C32G | 0.148
G1C C22U | 0.0706
G2A A16C | 0.0551
G2A A16G | 0.179
G1A C45A | 0.0944
G1U C24A | 0.0939
G1U C24U | 0.0825
G1U C33U | 0.214
G1U C33G | 0.102
G1U G25C | 0.0418
G1U G25A | 0.0632
G1U G25U | 0.0227
G1U G17C | 0.0433
G1U G17A | 0.0548
G1C A8G | 0.205
G1A C12U | 0.0887
G1C G3C | 0.0906
G1A U61A | 0.0967
G1A U61G | 0.15
G1A C7U | 0.0863
G1A C7A | 0.155

Variant | self-cleavage
G1U U21A | 0.054
G1A G50C | 0.115
G1C G30U | 0.162
G1C G41U | 0.193
G1C A10C | 0.23
G1C A10U | 0.209
G1A A10G | 0.115
G1A A10U | 0.0492
G1C A60U | 0.179
G1A G58U | 0.0885
G1U C66U | 0.127
G1A G4U | 0.0804
G1A U43G | 0.0723
G1A U43A | 0.0552
G1A U43C | 0.0436
G2A A13U | 0.121
G1A A51G | 0.0779
G1A A51C | 0.114
G1U U69C | 0.284
G1C U55G | 0.135
G1A C33A | 0.0757
G1U C34U | 0.147
G1U G14U | 0.0869

Variant | self-cleavage
G1C C63G | 0.201
G1C U62C | 0.264
G1C U26A | 0.165
G1A G3U | 0.0455
G1A G3A | 0.107
G2A A23U | 0.284
G1C C57U | 0.07
G1C A51G | 0.18
G1U U61C | 0.117
G1C U64G | 0.204
G1C G50C | 0.145
G1C G50A | 0.224
G1A U67A | 0.121
G1A U67G | 0.0812
G1C A42U | 0.2
G1C G65C | 0.174
G1C G65A | 0.134
G1A G28A | 0.0534
G1C G4U | 0.205
G1A G30U | 0.0869
G1A C29A | 0.061
G1C G5A | 0.272
G1C G5C | 0.15

Variant | self-cleavage
G1U C27U | 0.0539
G1A C27G | 0.0668
G1C U67G | 0.312
G1A G19A | 0.0657
G1A G19C | 0.0333
G1A G19U | 0.0319
G1C U21A | 0.246
G2A A40G | 0.105
G2A A40C | 0.0341
G1C G56U | 0.224
G1C U36G | 0.297
G1U C35G | 0.0241
G1A U55G | 0.0876
G1A C35G | 0.053
G1A G11C | 0.0395
G1C A15U | 0.229
G1C C29A | 0.168
G1U C54U | 0.136
G2A A15G | 0.166
G1A G31U | 0.0837
G1A A8C | 0.102
G1A A8G | 0.0246
